Results reported in patent US20090099029A1, “Methods and substrates for conducting assays” (Invitrogen Corporation, priority 2005, published 2009).

B1: SRPK2 (protein)
chain: MSSRKVLAIQARKRRPKREKHPKKPEPQQKAPLVPPPPPPPPPPPPPLPDPTPPEPEEEILGSDDEEQEDPADYCKGGYHPVKIGDLFNGRYHVIRKLGWGHFSTVWLCWDMQGKRFVAMKVVKSAQHYTETALDEIKLLKCVRESDPSDPNKDMVVQLIDDFKISGMNGIHVCMVFEVLGHHLLKWIIKSNYQGLPVRCVKSIIRQVLQGLDYLHSKCKIIHTDIKPENILMCVDDAYVRRMAAEATEWQKAGAPPPSGSAVSTAPQQKPIGKISKNKKKKLKKKQKRQAELLEKRLQEIEELEREAERKIIEENITSAAPSNDQDGEYCPEVKLKTTGLEEAAEAETAKDNGEAEDQEEKEDAEKENIEKDEDDVDQELANIDPTWIESPKTNGHIENGPFSLEQQLDDEDDDEEDCPNPEEYNLDEPNAESDYTYSSSYEQFNGELPNGRHKIPESQFPEFSTSLFSGSLEPVACGSVLSEGSPLTEQEESSPSHDRSRTVSASSTGDLPKAKTRAADLLVNPLDPRNADKIRVKIADLGNACWVHKHFTEDIQTRQYRSIEVLIGAGYSTPADIWSTACMAFELATGDYLFEPHSGEDYSRDEDHIAHIIELLGSIPRHFALSGKYSREFFNRRGELRHITKLKPWSLFDVLVEKYGWPHEDAAQFTDFLIPMLEMVPEKRASAGECLRHPWLNS
modifications: left off: a dimerising Fc or GST
B2: SGKL(SGK3) (protein, UniProt Q96BR1 1-496, looked up)
Serine/threonine-protein …: MQRDHTMDYKESCPSVSIPSSDEHREKKKRFTVYKVLVSVGRSEWFVFRRYAEFDKLYNTLKKQFPAMALKIPAKRIFGDNFDPDFIKQRRAGLNEFIQNLVRYPELYNHPDVRAFLQMDSPKHQSDPSEDEDERSSQKLHSTSQNINLGPSGNPHAKPTDFDFLKVIGKGSFGKVLLAKRKLDGKFYAVKVLQKKIVLNRKEQKHIMAERNVLLKNVKHPFLVGLHYSFQTTEKLYFVLDFVNGGELFFHLQRERSFPEHRARFYAAEIASALGYLHSIKIVYRDLKPENILLDSVGHVVLTDFGLCKEGIAISDTTTTFCGTPEYLAPEVIRKQPYDNTVDWWCLGAVLYEMLYGLPPFYCRDVAEMYDNILHKPLSLRPGVSLTAWSILEELLEKDRQNRLGAKEDFLEIQNHPFFESLSWADLVQKKIPPPFNPNVAGPDDIRNFDTAFTEETVPYSVCVSSDYSIVNASVLEADDAFVGFSYAPPSEDLFL
B3: STK22D(TSSK1) (protein)
chain: MDDAAVLKRRGYLLGINLGEGSYAKVKSAYSERLKFNVAIKIIDRKKAPADFLEKFLPREIEILAMLNHCSIIKTYEIFETSHGKVYIVMELAVQGDLLELIKTRGALHEDEARKKFHQLSLAIKYCHDLDVVHRDLKCDNLLLDKDFNIKLSDFSFSKRCLRDDSGRMALSKTFCGSPAYAAPEVLQGIPYQPKVYDIWSLGVILYIMVCGSMPYDDSNIKKMLRIQKEHRVNFPRSKHLTGECKDLIYHMLQPDVNRRLHIDEILSHCWMQPKARGSPSVAINKEGESSRGTEPLWTPEPGSDKKSATKLEPEGEAQPQAQPETKPEGTAMQMSRQSEILGFPSKPSTMETEEGPPQQPPETRAQ
modifications: left off: small tags and cut ends
B4: STK22B(TSSK2) (protein)
chain: MDDATVLRKKGYIVGINLGKGSYAKVKSAYSERLKFNVAVKIIDRKKTPTDFVERFLPREMDILATVNHGSIIKTYEIFETSDGRIYIIMELGVQGDLLEFIKCQGALHEDVARKMFRQLSSAVKYCHDLDIVHRDLKCENLLLDKDFNIKLSDFGFSKRCLRDSNGRIILSKTFCGSAAYAAPEVLQSIPYQPKVYDIWSLGVILYIMVCGSMPYDDSDIRKMLRIQKEHRVDFPRSKNLTCECKDLIYRMLQPDVSQRLHIDEILSHSWLQPPKPKATSSASFKREGEGKYRAECKLDTKTGLRPDHRPDHKLGAKTQHRLLVVPENENRMEDRLAETSRAKDHHISGAEVGKAST
modifications: left off: small tags and cut ends
B5: TAOK3(JIK) (protein)
chain: MRKGVLKDPEIADLFYKDDPEELFIGLHEIGHGSFGAVYFATNAHTSEVVAIKKMSYSGKQTHEKWQDILKEVKFLRQLKHPNTIEYKGCYLKEHTAWLVMEYCLGSASDLLEVHKKPLQEVEIAAITHGALHGLAYLHSHALIHRDIKAGNILLTEPGQVKLADFGSASMASPANSFVGTPYWMAPEVILAMDEGQYDGKVDIWSLGITCIELAERKPPLFNMNAMSALYHIAQNDSPTLQSNEWTDSFRRFVDYCLQKIPQERPTSAELLRHDFVRRDRPLRVLIDLIQRTKDAVRELDNLQYRKMKKILFQETRNGPLNESQEDEEDSEHGTSLNREMDSLGSNHSIPSMSVSTGSQSSSVNSMQEVMDESSSELVMMHDDESTINSSSSVVHKKDHVFIRDEAGHGDPRPEPRPTQSVQSQALHYRNRERFATIKSASLVTRQIHEHEQENELREQMSGYKRMRRQHQKQLIALENKLKAEMDEHRLKLQKEVETHANNSSIELEKLAKKQVAIIEKEAKVAAADEKKFQQQILAQQKKDLTTFLESQKKQYKICKEKIKEEMNEDHSTPKKEKQERISKHKENLQHTQAEEEAHLLTQQRLYYDKNCRFFKRKIMIKRHEVEQQNIREELNKKRTQKEMEHAMLIRHDESTRELEYRQLHTLQKLRMDLIRLQHQTELENQLEYNKRRERELHRKHVMELRQQPKNLKAMEMQIKKQFQDTCKVQTKQYKALKNHQLEVTPKNEHKTILKTLKDEQTRKLAILAEQYEQSINEMMASQALRLDEAQEAECQALRLQLQQEMELLNAYQSKIKMQTEAQHERELQKLEQRVSLRRAHLEQKIEEELAALQKERSERIKNLLERQEREIETFDMESLRMGFGNLVTLDFPKEDYR
modifications: left off: a dimerising Fc or GST
B6: TAOK2(TAO1) (protein)
chain: MPAGGRAGSLKDPDVAELFFKDDPEKLFSDLREIGHGSFGAVYFARDVRNSEVVAIKKMSYSGKQSNEKWQDIIKEVRFLQKLRHPNTIQYRGCYLREHTAWLVMEYCLGSASDLLEVHKKPLQEVEIAAVTHGALQGLAYLHSHNMIHRDVKAGNILLSEPGLVKLGDFGSASIMAPANSFVGTPYWMAPEVILAMDEGQYDGKVDVWSLGITCIELAERKPPLFNMNAMSALYHIAQNESPVLQSGHWSEYFRNFVDSCLQKIPQDRPTSEVLLKHRFVLRERPPTVIMDLIQRTKDAVRELDNLQYRKMKK
modifications: left off: a dimerising Fc or GST
B7: STK17A(DRAK1) (protein)
chain: MIPLEKPGSGGSSPGATSGSGRAGRGLSGPCRPPPPPQARGLLTEIRAVVRTEPFQDGYSLCPGRELGRGKFAVVRKCIKKDSGKEFAAKFMRKRRKGQDCRMEIIHEIAVLELAQDNPWVINLHEVYETASEMILVLEYAAGGEIFDQCVADREEAFKEKDVQRLMRQILEGVHFLHTRDVVHLDLKPQNILLTSESPLGDIKIVDFGLSRILKNSEELREIMGTPEYVAPEILSYDPISMATDMWSIGVLTYVMLTGISPFLGNDKQETFLNISQMNLSYSEEEFDVLSESAVDFIRTLLVKKPEDRATAEECLKHPWLTQSSIQEPSFRMEKALEEANALQEGHSVPEINSDTDKSETKESIVTEELIVVTSYTLGQCRQSEKEKMEQKAISKRFKFEEPLLQEIPGEFIY
modifications: left off: a dimerising Fc or GST
B8: SGK2 (protein)
chain: LPDHCYRMNSSPAGTPSPQPSRANGNINLGPSANPNAQPTDFDFLKVIGKGNYGKVLLAKRKSDGAFYAVKVLQKKSILKKKEQSHIMAERSVLLKNVRHPFLVGLRYSFQTPEKLYFVLDYVNGGELFFHLQRERRFLEPRARFYAAEVASAIGYLHSLNIIYRDLKPENILLDCQGHVVLTDFGLCKEGVEPEDTTSTFCGTPEYLAPEVLRKEPYDRAVDWWCLGAVLYEMLHGLPPFYSQDVSQMYENILHQPLQIPGGRTVAACDLLQSLLHKDQRQRLGSKADFLEIKNHVFFSPINWDDLYHKRLTPPFNPNVTGPADLKHFDPEFTQEAVSKSIGCTPDTVASSSGASSAFLGFDYAPEDDDILDC
modifications: left off: a dimerising Fc or GST

test system: kinases of Table 6 on Myelin Basic Protein (MBP); experiment: Kinase assay using MBP substrate, ProQ Diamond stain (Table 6); type: biochemical; conditions: kinase printed on MBP-coated slide; 20 uM ATP, 30° C.; ProQ Diamond Microarray Stain; graded Strong/Weak/Negative
Outline: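 Reactions ran at 30° C. with 20 uM ATP, 4 mM MgCl2 and 5% DMSO in HEPES pH 7.5, inhibitor added or omitted. Kinases had been arrayed onto slide-bound dephosphorylated bovine MBP; phospho-signal read after ProQ Diamond staining.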

Row | Molecule | MBP Kinase Activity
1 | B1 | Strong
2 | B2 | Weak
3 | B3 | Strong
4 | B4 | Negative
5 | B5 | Strong
6 | B6 | Strong
7 | B7 | Negative
8 | B8 | Weak
